Test results taken from patent publication US20230321287A1, “RADIOLABELLED GRPR-ANTAGONIST FOR USE AS THERAGNOSTIC” (NOVARTIS AG, priority 2019, published 2023).

Test: clinical
Conditions: human, Relative radiotracer uptake
Source text: The primary objective was to characterize preliminary targeting properties of [68Ga] NeoB in patients with malignancies known to overexpress GRPR. The primary efficacy endpoints were: • Number and location of tumor lesions detected by [68Ga]-NeoBOMB1 overall and for each tumor type • Calculation of the ratio tumor/background standard uptake value (SUV) and %injected dose per gram of tissue (ID/g) and calculation of absorbed dose (mGy/MBq) in tumor overall and for each tumor type.
Accordingly, highest relative tracer uptake following administration of a bombesin antagonist is expected in pancreas, kidney, and liver (Roivainen et al, 2013).

`CC(C)CC(CC(C)C)NC(=O)[C@H](Cc1cnc[nH]1)NC(=O)CNC(=O)[C@@H](NC(=O)[C@H](C)NC(=O)[C@H](Cc1c[nH]c2ccccc12)NC(=O)[C@H](CCC(N)=O)NC(=O)[C@@H](Cc1ccccc1)NC(=O)COCC(=O)Nc1ccc(CNC(=O)CN2CCN(CC(=O)O)CCN(CC(=O)O)CCN(CC(=O)O)CC2)cc1)C(C)C` [[68Ga]-NeoB, metal not drawn] showed a tissue uptake at 0.25 h (Liver, patient FR01-008, 15 min/38.6 min actual) of 0.00794 %ID/g, a tissue uptake at 0.25 h (alveolar-interstitial (lungs), total radioactivity, patient FR01-009, 15 min/17.8 min actual) of 0.00124 %ID/g and a tissue uptake at 1 h (alveolar-interstitial (lungs), total radioactivity, patient FR01-009, 60 min/60.7 min actual) of 0.000884 %ID/g. It also gave a tissue uptake at 2 h (alveolar-interstitial (lungs), total radioactivity, patient FR01-009, 120 min/123.9 min actual) of 0.000591 %ID/g, a tissue uptake at 4 h (alveolar-interstitial (lungs), total radioactivity, patient FR01-009, 240 min/207.9 min actual) of 0.000386 %ID/g and a tissue uptake at 0.25 h (heart wall, total radioactivity, patient FR01-009, 15 min/17.8 min actual) of 0.0034 %ID/g. For the same molecule, the tissue uptake at 1 h (heart wall, total radioactivity, patient FR01-009, 60 min/60.7 min actual) was 0.00207 %ID/g, the tissue uptake at 2 h (heart wall, total radioactivity, patient FR01-009, 120 min/123.9 min actual) was 0.00142 %ID/g and the tissue uptake at 4 h (heart wall, total radioactivity, patient FR01-009, 240 min/207.9 min actual) was 0.000928 %ID/g. The tissue uptake at 0.25 h (kidneys, total radioactivity, patient FR01-009, 15 min/17.8 min actual) was 0.0048 %ID/g, the tissue uptake at 1 h (kidneys, total radioactivity, patient FR01-009, 60 min/60.7 min actual) was 0.0038 %ID/g and the tissue uptake at 2 h (kidneys, total radioactivity, patient FR01-009, 120 min/123.9 min actual) was 0.00505 %ID/g. For the same molecule, the tissue uptake at 4 h (kidneys, total radioactivity, patient FR01-009, 240 min/207.9 min actual) was 0.00278 %ID/g, the tissue uptake at 1 h (liver, total radioactivity, patient FR01-008, 60 min/62.6 min actual) was 0.00296 %ID/g and the tissue uptake at 2 h (liver, total radioactivity, patient FR01-008, 120 min/123.2 min actual) was 0.00197 %ID/g. It also gave a tissue uptake at 4 h (liver, total radioactivity, patient FR01-008, 240 min/221.1 min actual) of 0.00162 %ID/g, a tissue uptake at 0.25 h (liver, total radioactivity, patient FR01-009, 15 min/17.8 min actual) of 0.00866 %ID/g and a tissue uptake at 1 h (liver, total radioactivity, patient FR01-009, 60 min/60.7 min actual) of 0.00564 %ID/g. The tissue uptake at 2 h (liver, total radioactivity, patient FR01-009, 120 min/123.9 min actual) was 0.00428 %ID/g, the tissue uptake at 4 h (liver, total radioactivity, patient FR01-009, 240 min/207.9 min actual) was 0.00317 %ID/g and the tissue uptake at 0.25 h (pancreas, total radioactivity, patient FR01-008, 15 min/38.6 min actual) was 0.0471 %ID/g. It also gave a tissue uptake at 1 h (pancreas, total radioactivity, patient FR01-008, 60 min/62.6 min actual) of 0.0484 %ID/g, a tissue uptake at 2 h (pancreas, total radioactivity, patient FR01-008, 120 min/123.2 min actual) of 0.0545 %ID/g and a tissue uptake at 4 h (pancreas, total radioactivity, patient FR01-008, 240 min/221.1 min actual) of 0.0628 %ID/g. For the same molecule, the tissue uptake at 0.25 h (pancreas, total radioactivity, patient FR01-009, 15 min/17.8 min actual) was 0.0215 %ID/g, the tissue uptake at 1 h (pancreas, total radioactivity, patient FR01-009, 60 min/60.7 min actual) was 0.0291 %ID/g and the tissue uptake at 2 h (pancreas, total radioactivity, patient FR01-009, 120 min/123.9 min actual) was 0.0345 %ID/g. It also gave a tissue uptake at 4 h (pancreas, total radioactivity, patient FR01-009, 240 min/207.9 min actual) of 0.0374 %ID/g, a tissue uptake at 0.25 h (red (active) marrow, total radioactivity, patient FR01-008, 15 min/38.6 min actual) of 0.00331 %ID/g and a tissue uptake at 1 h (red (active) marrow, total radioactivity, patient FR01-008, 60 min/62.6 min actual) of 0.00116 %ID/g. The tissue uptake at 2 h (red (active) marrow, total radioactivity, patient FR01-008, 120 min/123.2 min actual) was 0.000916 %ID/g, the tissue uptake at 4 h (red (active) marrow, total radioactivity, patient FR01-008, 240 min/221.1 min actual) was 0.000346 %ID/g and the tissue uptake at 0.25 h (red (active) marrow, total radioactivity, patient FR01-009, 15 min/17.8 min actual) was 0.00186 %ID/g. It also gave a tissue uptake at 1 h (red (active) marrow, total radioactivity, patient FR01-009, 60 min/60.7 min actual) of 0.00136 %ID/g, a tissue uptake at 2 h (red (active) marrow, total radioactivity, patient FR01-009, 120 min/123.9 min actual) of 0.000998 %ID/g and a tissue uptake at 4 h (red (active) marrow, total radioactivity, patient FR01-009, 240 min/207.9 min actual) of 0.000722 %ID/g. It also gave a tissue uptake at 0.25 h (spleen, total radioactivity, patient FR01-008, 15 min/38.6 min actual) of 0.00409 %ID/g, a tissue uptake at 1 h (spleen, total radioactivity, patient FR01-008, 60 min/62.6 min actual) of 0.00211 %ID/g and a tissue uptake at 2 h (spleen, total radioactivity, patient FR01-008, 120 min/123.2 min actual) of 0.00141 %ID/g. For the same molecule, the tissue uptake at 0.25 h (spleen, total radioactivity, patient FR01-009, 15 min/17.8 min actual) was 0.00338 %ID/g, the tissue uptake at 1 h (spleen, total radioactivity, patient FR01-009, 60 min/60.7 min actual) was 0.00256 %ID/g and the tissue uptake at 2 h (spleen, total radioactivity, patient FR01-009, 120 min/123.9 min actual) was 0.00191 %ID/g. It also gave a tissue uptake at 4 h (spleen, total radioactivity, patient FR01-009, 240 min/207.9 min actual) of 0.00145 %ID/g, a tissue uptake at 0.25 h (tumor lesion T1-lungL, total radioactivity, patient FR01-009, 15 min/17.8 min actual) of 0.00367 %ID/g and a tissue uptake at 1 h (tumor lesion T1-lungL, total radioactivity, patient FR01-009, 60 min/60.7 min actual) of 0.00455 %ID/g. For the same molecule, the tissue uptake at 2 h (tumor lesion T1-lungL, total radioactivity, patient FR01-009, 120 min/123.9 min actual) was 0.00481 %ID/g, the tissue uptake at 4 h (tumor lesion T1-lungL, total radioactivity, patient FR01-009, 240 min/207.9 min actual) was 0.00385 %ID/g and the tissue uptake at 0.25 h (tumor lesion T2-lungR, total radioactivity, patient FR01-009, 15 min/17.8 min actual) was 0.00466 %ID/g. The tissue uptake at 1 h (tumor lesion T2-lungR, total radioactivity, patient FR01-009, 60 min/60.7 min actual) was 0.00463 %ID/g, the tissue uptake at 2 h (tumor lesion T2-lungR, total radioactivity, patient FR01-009, 120 min/123.9 min actual) was 0.00377 %ID/g and the tissue uptake at 4 h (tumor lesion T2-lungR, total radioactivity, patient FR01-009, 240 min/207.9 min actual) was 0.00248 %ID/g. For the same molecule, the tissue uptake at 0.25 h (tumor lesion T3-liverL, total radioactivity, patient FR01-009, 15 min/17.8 min actual) was 0.0135 %ID/g and the tissue uptake at 1 h (tumor lesion T3-liverL, total radioactivity, patient FR01-009, 60 min/60.7 min actual) was 0.018 %ID/g.
